# Numbering of substitutions follows the chain as printed. Names and notes keep the numbering of the source.
# B1: UmIDH (Umboniibacter marinipuniceus) (protein)
# chain: MTFQYILPPKSGEPIQHTQDNQIIVPDRPIIPYIEGDGIGIDITPVMLEVVDAAVAQAYKGKKSIAWMEVFCGEKAADIYEGDWFPPETLAALQKYSVAIKGPLTTPIGGGFRSLNVALRQELDLYVCQRPIQWFKGVPSVVRKPNAVKMVIFRENSEDIYAGIEWRAGSEEAIKVTRFLQEEMGVTSLRFTENCGLGVKPISEQGSKRLVRKAIEYAIAHDKPSVTMVHKGNIMKYTEGAFCEWGYEVACEEFGATHEADSPWLTIINPNTAAKIVIKDVIADAMMQEILMYPQDHSVIATMNLNGDYLSDALAAQVGGIGIAPGANIGDRIALFEPTHGTAPRLAGMDRVNPCSLILSAEMMLRHLGWTKAADLMVKGVKYTISDRTVTHDFHSMMEHAELLSTSEFGAAVIKNMRRR
# notes: full-length, codon-optimised synthetic gene in pET28b (NdeI/XhoI), 6xHis tag, E. coli Rosetta (DE3); Type I IDH; putative coenzyme residues R345, L346, V352
# B2: UmIDH (Umboniibacter marinipuniceus; L346Y/R345K) (protein)
# chain: B1 chain with R345K, L346Y
# notes: as for B1
# B3: UmIDH (Umboniibacter marinipuniceus; L346I/R345D/V352A) (protein)
# chain: B1 chain with R345D, L346I, V352A
# notes: as for B1
# Experiments:
# purified protein [1] = substrate: NC(=O)c1ccc[n+]([C@@H]2O[C@H](COP(=O)(O)OP(=O)(O)OC[C@H]3O[C@@H](n4cnc5c(N)ncnc54)[C@H](OP(=O)(O)O)[C@@H]3O)[C@@H](O)[C@H]2O)c1; assay: purified protein; format: biochemical, Umboniibacter marinipuniceus; conditions: 1 mM DL-isocitrate, 50 mM Tris-HCl pH 8.5, 25 °C, apparent constant, varied: cofactor
# purified protein [2] = substrate: NC(=O)c1ccc[n+]([C@@H]2O[C@H](COP(=O)(O)OP(=O)(O)OC[C@H]3O[C@@H](n4cnc5c(N)ncnc54)[C@H](O)[C@@H]3O)[C@@H](O)[C@H]2O)c1; assay: purified protein; format: biochemical, Umboniibacter marinipuniceus; conditions: 1 mM DL-isocitrate, 50 mM Tris-HCl pH 8.5, 25 °C, apparent constant, varied: cofactor
protein,measurement,setting,value
B1,Km,purified protein [1]; Mn2+ (2 mM),1167.7 ± 113.0 µM
same,kcat,purified protein [1]; Mn2+ (2 mM),11.1 ± 0.4 s⁻¹
same,kcat/Km,purified protein [1]; Mn2+ (2 mM),9500 M⁻¹ s⁻¹
same,Km,purified protein [2]; Mn2+ (2 mM),1800.0 ± 64.4 µM
same,kcat,purified protein [2]; Mn2+ (2 mM),7.5 ± 0.3 s⁻¹
same,kcat/Km,purified protein [2]; Mn2+ (2 mM),4200 M⁻¹ s⁻¹
B2,Km,purified protein [1]; metal not stated for mutants,605.9 ± 38.2 µM
same,kcat,purified protein [1]; metal not stated for mutants,15.3 ± 0.2 s⁻¹
same,kcat/Km,purified protein [1]; metal not stated for mutants,25000 M⁻¹ s⁻¹
B3,Km,purified protein [2]; metal not stated for mutants,369.7 ± 11.84 µM
same,kcat,purified protein [2]; metal not stated for mutants,17.7 ± 0.9 s⁻¹
same,kcat/Km,purified protein [2]; metal not stated for mutants,48000 M⁻¹ s⁻¹

# — PMC10380307, “Enzymatic Characterization of the Isocitrate Dehydrogenase with Dual Coenzyme Specificity from the Marine Bacterium Umbonibacter marinipuiceus” (International Journal of Molecular Sciences, 2023)
